According to patent US11319348B2, “Synthetic beta-amyloid peptides capable of forming stable antigenic oligomers” (The Regents of the University of California, priority 2016, dated 2022):
Non-standard residues stand in square brackets, D forms with d. No end group written: not given here. Orn = NCCC[C@H](N)C(=O)O

What was measured:
[1] = size exclusion chromatography in Tris buffer; type: physicochemical; conditions: SEC
Text: The elution profile of peptide 8 was compared to the size standards vitamin B12, aprotinin, and cytochrome c, as well as peptide 2. Peptide 8 elutes as a broad peak with three distinct humps (FIG. 41B). […] Peptide 2 elutes as two distinct peaks: a larger peak with an elution volume consistent with the molecular weight of a dimer, and a smaller peak with an elution volume consistent with the molecular weight of a trimer (FIG. 41B). […]

[2] = X-ray crystallography, oligomers in the crystal; type: physicochemical; conditions: crystal state
Procedure: The structures of trimers 3 and 4 were elucidated by X-ray crystallography. One of the challenges in X-ray crystallography is determining the X-ray crystallographic phases. Doing so often requires incorporation of a heavy atom—such as selenium, bromine or iodine—through covalent modification. In previously solving the X-ray crystallographic structures of peptides 1 and 2, homologues were prepared containing p-iodophenylalanine. In solving the X-ray crystallographic structures of trimers 3 and 4, two techniques for X-ray crystallographic phase determination that have not been widely used for peptides were employed: sulfur single-wavelength anomalous diffraction (S-SAD) and post-crystallization incorporation of iodide ions into the crystal lattice.
S-SAD was used to determine the X-ray crystallographic structure of trimer 4. The intrinsic anomalous scattering of the sulfur atoms in the asymmetric unit provided sufficient data to determine the X-ray crystallographic phases. […]
Diffraction data for trimers 3 and 4 were collected on a Rigaku Micromax-007HF X-ray diffractometer with a rotating copper anode at 1.54 Å wavelength with 0.5° oscillation. […] Coordinates for the anomalous signals were determined by HySS in the Phenix software suite 1.10.1. Electron density maps were generated using anomalous coordinates determined by HySS as initial positions in Autosol. […]

Which oligomer size [1] does the source give for “peptide 2: macrocyclic β-sheet peptide: Aβ17-23 and Aβ30-36 strands linked by two δOrn turns, Orn35, N-methyl on F20 (Seq. ID 20-21)” here?
The oligomer size was “dimer, trimer”.

With “trimer 3: symmetric tris-disulfide crosslinked trimer generated from peptide 3 (chain 1 [Orn]CVFFCED; chain 2 [Orn]AIIGL[Orn]V; not fully specified (some residues); also: symmetric tris-disulfide crosslinked trimer, macrocyclic by macrolactamization, linkage of strands not given here)” as the substance, how does the “oligomer size by crystallography” value [2] read?
Its value is 6.
